The target of test [1] is T1, human serum albumin (human, UniProt P02768 25-609). Put plainly: MST.
Test [2] addresses T1, human serum albumin. Put plainly: BLI. For orientation: BLI is a label-free optical method that tracks binding on a fibre tip over time.
For test [3], the target named is T1, human serum albumin. Put plainly: BLI. This is another data set of the same source.

B1: DesAb-HSA-P1, C-terminal cysteine variant labelled with Alexa Fluor 647 (VHH)
VHH: EVQLEESGGGLVQPGGSLRLSCAASGFNIKDTYIGWVRQAPGKGEEWVASIYPTSGYTRYADSVKGRFTISADTSKNTAYLQMNSLRAEDTAVYYCAAGSIQKSLQTAESILEEFDYWGQGTLVTVSS
modifications: Alexa Fluor 647 (maleimide) on the free C-terminal cysteine of the Asp-Cys-Glu motif
B1: in the test with human serum albumin [1], the Kd was 140 nM.

B2: DesAb-HSA-P1 (VHH)
VHH: EVQLEESGGGLVQPGGSLRLSCAASGFNIKDTYIGWVRQAPGKGEEWVASIYPTSGYTRYADSVKGRFTISADTSKNTAYLQMNSLRAEDTAVYYCAAGSIQKSLQTAESILEEFDYWGQGTLVTVSS
Turning to B2, the Kd with human serum albumin [2] is 279 nM.

B3: Nb.B201 (VHH)
VHH: QVQLQESGGGLVQAGGSLRLSCAASGYISDAYYMGWYRQAPGKEREFVATITHGTNTYYADSVKGRFTISRDNAKNTVYLQMNSLKPEDTAVYYCAVLETRSYSFRYWGQGTQVTVSS
In turn, B3 showed a Kd with human serum albumin [3] of around 370 nM.

B4: DesAb-HSA-D3, C-terminal cysteine variant labelled with Alexa Fluor 647 (VHH)
VHH: EVQLQESGGGLVQAGGSLRLSCAASGELYALISMGWFRQAPGKEREFVAAISRNGDNTYYTDSVKGRFTISRDNAKNTVELQMNSLKPEDTAVYYCAADKFASPDGSVTIMTNEYDYWGQGTQVTVSD
modifications: Alexa Fluor 647 (maleimide) on the free C-terminal cysteine of the Asp-Cys-Glu motif
In the test with human serum albumin [1], B4 showed a Kd of 146 nM.

B5: DesAb-HSA-D3 (VHH)
VHH: EVQLQESGGGLVQAGGSLRLSCAASGELYALISMGWFRQAPGKEREFVAAISRNGDNTYYTDSVKGRFTISRDNAKNTVELQMNSLKPEDTAVYYCAADKFASPDGSVTIMTNEYDYWGQGTQVTVSD
In turn, B5 came in with a Kd with human serum albumin [2] of 308 nM.

B6: DesAb-HSA-P2 (VHH)
VHH: EVQLEESGGGLVQPGGSLRLSCAASGFNIKDTYIGWVRQAPGKGEEWVASIYPTSGYTRYADSVKGRFTISADTSKNTAYLQMNSLRAEDTAVYYCAAGSAQAGNAEEAEEEFDYWGQGTLVTVSS
In the test with human serum albumin [2], B6 came in with a Kd of 412 nM.

B7: DesAb-HSA-P2, C-terminal cysteine variant labelled with Alexa Fluor 647 (VHH)
VHH: EVQLEESGGGLVQPGGSLRLSCAASGFNIKDTYIGWVRQAPGKGEEWVASIYPTSGYTRYADSVKGRFTISADTSKNTAYLQMNSLRAEDTAVYYCAAGSAQAGNAEEAEEEFDYWGQGTLVTVSS
modifications: Alexa Fluor 647 (maleimide) on the free C-terminal cysteine of the Asp-Cys-Glu motif
In turn, B7 gave a Kd in the test with human serum albumin [1] of 810 nM.

What is called Kd is the free concentration of one partner at which half of the binding sites on the other are occupied at equilibrium, for simple one-to-one binding. A low value points to higher affinity.

(Values after publication PMC9651861 (2022).)
